Numbering of substitutions follows the chain as printed. Where two headings read alike, the source gives them in different places.

The target in assay [1] is T1, human CSF1R expressed on cells (293F/huCSF1R stable cells; AML5 cells; human monocytes and macrophages) (human, UniProt P07333 20-972). The assay is described as follows: cell-based or functional assay.
Assay [2] deals with T2, recombinant human CSF1R-His (Biolegend) (human, UniProt P07333 20-512, limits assumed).
T2 construct: Bought protein; also called CSF1R-His (monomer); hu-CSF1R; not shown: His tag
The assay is described as follows: ELISA, coated human CSF1R-His (monomer). The protocol:
(§1) Materials and methods: Recombinant human CSF1R-His (Biolegend), or CSF1R-Fc fusion protein, were immobilized on 96 well microtiter plate at a concentration of 1 μg/mL in Coating Solution (SeraCare) overnight at 4° C. The wells were washed with wash solution (0.05% Tween20 in imidazole-buffered saline) and blocked with 1% BSA. Serial dilutions of the antibodies were added to wells. After incubation at 3TC for 1 h, the wells were washed with wash solution. Peroxidase-conjugated goat anti-human kappa light chain antibody (Bethyl) was applied to each well at 3TC for 1 h incubation. After washing, the wells were developed with TMB substrate for 5-10 min at RT and then stopped with 1 N HCl. Thereafter absorbance was measured at 450 nm and 650 nm. The EC50 values were calculated through GraphPad Prism7.
A general note: ELISA stands for enzyme-linked immunosorbent assay.

For assay [3], the target named is T3, recombinant human CSF1R-Fc fusion protein (human, UniProt P07333 20-512).
T3 construct: probably the same protein; also called CSF1R-Fc (dimer); not shown: Fc part
The assay is described as follows: ELISA, coated human CSF1R-Fc (dimer). The method, then: as §1

The target of assay [4] is T3, recombinant human CSF1R-Fc fusion …. The assay is described as follows: ELISA, coated human CSF1R-Fc. The protocol: Materials and methods: Recombinant human CSF1R-Fc, or mouse CSF1R-Fc (Sino Biological) were immobilized on 96 well microtiter plate at a concentration of 1 μg/mL in Coating Solution (SeraCare) overnight at 4° C. The wells were washed with wash solution (0.05% Tween20 in imidazole-buffered saline) and blocked with 1% BSA. Serial dilutions of the anti-CSF1R/IL-10 fusion proteins were added to wells. After incubation at 3TC for 1 h, the wells were washed with wash solution. To detect chimeric Ab/IL10 fusions, peroxidase-conjugated goat anti-human kappa light chain antibody (Bethyl) was applied to each well at 3TC for 1 h incubation. To detect AB98 or AB98/1110 fusions, peroxidase-conjugated Goat anti-mouse IgG Fab antibody (Jackson immunoresearch) was applied to each well at 3TC for 1 h incubation. After washing, the wells were developed with TMB substrate for 5-10 min at RT and then stopped with 1 N HCl. Thereafter absorbance was measured at 450 nm and 650 nm.

For assay [5], the target named is T1, human CSF1R expressed on cells …. The assay is described as follows: cell-based or functional assay. This is another data set of the same source.
The target is the same in assay [6]. The assay is described as follows: cell-based or functional assay. This is another data set of the same source.
Assay [7] concerns the target T4, cynomolgus CSF1R expressed on 293F cells (cynomolgus monkey, UniProt P07333 20-972 (human entry)).
T4 construct: also called cynoCSF1R
T4 chain: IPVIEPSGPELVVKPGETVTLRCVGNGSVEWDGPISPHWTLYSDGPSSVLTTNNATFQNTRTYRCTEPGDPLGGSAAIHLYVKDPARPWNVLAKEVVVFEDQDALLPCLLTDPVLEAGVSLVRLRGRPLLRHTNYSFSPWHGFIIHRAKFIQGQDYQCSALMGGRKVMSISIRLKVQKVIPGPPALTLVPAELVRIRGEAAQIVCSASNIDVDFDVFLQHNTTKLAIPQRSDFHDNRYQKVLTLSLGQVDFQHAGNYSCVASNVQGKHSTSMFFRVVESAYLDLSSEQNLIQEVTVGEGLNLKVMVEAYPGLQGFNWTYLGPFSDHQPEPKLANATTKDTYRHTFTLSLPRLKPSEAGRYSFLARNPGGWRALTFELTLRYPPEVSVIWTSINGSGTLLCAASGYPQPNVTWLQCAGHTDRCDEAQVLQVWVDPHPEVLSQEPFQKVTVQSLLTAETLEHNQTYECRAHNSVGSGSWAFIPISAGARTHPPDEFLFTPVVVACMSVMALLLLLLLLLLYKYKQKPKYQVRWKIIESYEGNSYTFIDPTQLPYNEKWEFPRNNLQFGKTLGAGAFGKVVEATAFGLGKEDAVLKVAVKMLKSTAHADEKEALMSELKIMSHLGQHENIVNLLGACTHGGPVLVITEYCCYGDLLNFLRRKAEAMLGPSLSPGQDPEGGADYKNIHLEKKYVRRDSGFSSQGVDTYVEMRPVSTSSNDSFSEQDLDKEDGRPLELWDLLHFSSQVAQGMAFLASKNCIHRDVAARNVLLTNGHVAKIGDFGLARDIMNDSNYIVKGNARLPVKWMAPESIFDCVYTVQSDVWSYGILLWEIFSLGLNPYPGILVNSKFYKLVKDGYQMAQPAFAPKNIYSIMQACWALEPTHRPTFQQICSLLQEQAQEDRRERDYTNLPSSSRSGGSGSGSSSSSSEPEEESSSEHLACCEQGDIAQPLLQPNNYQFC
The assay is described as follows: flow cytometry titration on 293F cells overexpressing cynomolgus CSF1R, anti-human IgG-Alexa Fluor 647. An excerpt: Materials and methods: The gene segments encoding full-length human CSF1R or cynomolgus CSF1R were obtained using Thermo gene synthesis service and cloned in a mammalian expression vector pCDNA3.4. […] After washing with FACS buffer (2%FBS in PBS), the cells were stained with anti-human IgG-Alexa Fluor 647 and analyzed by Attune N×T Flow Cytometer (Thermo Scientific).
In general terms: A flow cytometer gives signals particle by particle.

The target in assay [8] is T3, recombinant human CSF1R-Fc fusion …. The assay is described as follows: ELISA, coated human CSF1R-Fc (dimer). The method, then:
as §1, with “protein” for “protein,”, “Hybridoma culture supernatants or serial” for “Serial”, “of” for “of the”, “37° C.” for “3TC”, “EC₅₀” for “EC50”
This is another data set of the same source.

For assay [9] the target is unchanged. The assay is described as follows: competition ELISA, coated human CSF1R-Fc, competitor biotinylated CSF1-His 2.5 ug/mL. The method, then:
Materials and methods: Recombinant human CSF1R-Fc fusion protein was immobilized on 96 well microtiter plate at a concentration of 1 μg/mL in Coating Solution (SeraCare) overnight at 4° C. The wells were washed with wash solution and blocked with 1% BSA at RT. Serial dilutions of the antibodies were added to wells. Then 2.5 ug/mL biotinylated CSF1-His (Biolegend) was added and incubated for 1 h at 37° C. After washing, Streptavidin-HRP (Jackson ImmunoResearch) was applied to wells at RT for 1 h incubation. After washing, the wells were developed with TMB substrate for 5-10 min at RT and the stopped with 1 N HCl. Thereafter absorbance was measured at 450 nm and 650 nm. The IC₅₀ values were calculated through GraphPad Prism7.

Assay [10] has as its target T2, recombinant human CSF1R-His (Biolegend). The assay is described as follows: ELISA, coated human CSF1R-His (monomer). The method, then:
as §1, with “protein” for “protein,”, “Hybridoma culture supernatants or serial” for “Serial”, “of” for “of the”, “37° C.” for “3TC”, “EC₅₀” for “EC50”
This is another data set of the same source.

The target in assay [11] is T1, human CSF1R expressed on cells …. The assay is described as follows: cell-based or functional assay. The source holds these as a separate data set.
The target of assay [12] is T2, recombinant human CSF1R-His (Biolegend). The assay is described as follows: BLI (Octet RED96), antibody captured on AHC biosensor, CSF1R-His in solution, 1:1 model. The protocol:
Kinetic rate constants, ka and kd, for binding of 6D4 and 6M6 to CSF1R were measured by Bio-Layer Interferometry (BLI) (ForteBio Octet RED96). The BLI assay was performed using AHC (Anti-hIgG Fc Capture) biosensors (ForteBio) to capture each anti-CSF1R antibody (2 μg/mL) to acquire a 0.5 nm shift and then the biosensors were dipped into varying concentrations (i.e. 0, 0.549, 1.65, 4.94, 14.8, 44.4, 133.3 and 400 nM) of recombinant CSF1R-His protein in running buffer containing PBS-Tween 20 (0.1%), BSA (0.1%). Rate constants were calculated by curve fitting analyses (1:1 Langmuir model) of binding response with a 5-minute association and 15-minute dissociation interaction time.
A general note: In BLI a coated tip is dipped into the sample, and binding shifts an interference pattern.

Assay [13] deals with T1, human CSF1R expressed on cells …. The assay is described as follows: cell-based or functional assay. The source holds these as a separate data set.

T3 sequence (P07333 20-512 limits assumed): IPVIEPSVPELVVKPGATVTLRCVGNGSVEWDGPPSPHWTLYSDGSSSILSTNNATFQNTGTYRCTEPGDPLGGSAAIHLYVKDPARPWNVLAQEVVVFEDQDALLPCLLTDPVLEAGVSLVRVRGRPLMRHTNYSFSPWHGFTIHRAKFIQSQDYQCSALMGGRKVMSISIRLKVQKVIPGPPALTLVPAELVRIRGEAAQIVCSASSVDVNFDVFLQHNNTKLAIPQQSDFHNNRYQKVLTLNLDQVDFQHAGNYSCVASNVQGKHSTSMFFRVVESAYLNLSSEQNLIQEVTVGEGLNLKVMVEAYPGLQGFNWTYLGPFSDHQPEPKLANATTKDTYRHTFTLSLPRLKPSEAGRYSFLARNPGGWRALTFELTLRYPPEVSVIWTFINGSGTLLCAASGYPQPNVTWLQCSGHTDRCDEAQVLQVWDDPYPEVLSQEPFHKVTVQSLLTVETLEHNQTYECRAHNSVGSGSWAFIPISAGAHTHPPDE
T2 sequence (P07333 20-512 limits assumed): as above

B1: humanized anti-CSF1R antibody 6M6.hu12 (antibody, human IgG1, kappa)
heavy: not shown
light: DIVLTQSPDSLAVSLGERATINCKASQGVDYAGDSYMNWYQQKPGQPPKLLIYVASDLDSGIPDRFSGSGSGTDFTLTISSLQAEDVATYYCQQSYEDPRTFGGGTTLEIKRTVAAPSVFIFPPSDEQLKSGTASVVCLLNNFYPREAKVQWKVDNALQSGNSQESVTEQDSKDSTYSLSSTLTLSKADYEKHKVYACEVTHQGLSSPVTKSFNRGEC
notes: Humanized version of 6M6; also called 6M6.hul2
For the molecule B1, in assay [1], the “IC50 (M), CSF1-dependent AML5 cell proliferation” value amounted to 5.46e-10 M. Also, the EC50 (usually the concentration that produces a half-maximal response) in assay [2] was found to be 0.103 nM; in assay [3], 0.0613 nM.

B2: humanized anti-CSF1R/IL10 fusion protein 6M6.hu12/IL10 (antibody, human IgG1, kappa)
heavy: not shown
light: B1 light
notes: Antibody-cytokine fusion: human IL10 fused by a linker to the C-terminus of the heavy chain
Consider B2, for which, in [4], the EC50 was 0.252 nM. Besides, the “IC50 (M), inhibition of AML5 cell proliferation (CSF1-dependent)” value in assay [5] came to 1.61e-09 M. Further, in [6], the “IC50 (M), inhibition of macrophage survival (CSF1-dependent)” value is 1.49e-10 M. Besides, the binding result in assay [7] was “binds”.

B3: humanized anti-CSF1R/IL10 fusion protein 6M6.hu41/IL10 (antibody, human IgG1, kappa)
heavy: not shown
light: B1 light with I62V
notes: Antibody-cytokine fusion: human IL10 fused by a linker to the C-terminus of the heavy chain; also called 6M6.hu41/1L10
Consider B3, for which the EC50 in assay [4] stood at 0.205 nM. In assay [5], the “IC50 (M), inhibition of AML5 cell proliferation (CSF1-dependent)” value was determined as 8.93e-10 M. Also, the “IC50 (M), inhibition of macrophage survival (CSF1-dependent)” value in [6] turned out to be 1.84e-10 M. Besides, the binding result in assay [7] is recorded as “binds”.

B4: humanized anti-CSF1R antibody 6M6.hu41 (antibody, human IgG1, kappa)
heavy: not shown
light: B1 light with I62V
notes: Humanized version of 6M6
B4: in assay [1], the “IC50 (M), CSF1-dependent AML5 cell proliferation” value is 4.3e-10 M. Moreover, the EC50 worked out at 0.107 nM in [2] and 0.065 nM in assay [3].

B5: hy6D4 (antibody, V domains shown)
VH: EIQLQQSGAELVKPRASVKISCEASGYSFTGYNMNWVKQSPGKSLEWIGDINPYYGATTYNQKFKGKATLTVDKSSSTAYMQLNSLTSEDSAVYYCARRGDYGDYEGWYFDVWGAGTTVTVSS
VL: DIQMNQSPSSLSASLGDTITITCHASQNINVWLSWYQQKPGNIPKLLIYKASNLHTGVPSRFSGSGSGTGFTLTISSLQPEDIATYYCQQGQSYPYTFGGGTKLEIK
notes: Mouse hybridoma antibody; also called anti-CSF1R antibody purified from hybridoma supernatant hy6D4
B5: the EC50 in assay [8] turned out to be 0.381 nM; in [10], 0.531 nM. Also, in assay [9], the half-inhibitory concentration (IC50) (usually the midpoint of a concentration-inhibition curve) was 1.76 nM.

B6: chimeric anti-CSF1R antibody 6D4 (antibody, human IgG1, kappa)
heavy: not shown
light: DIQMNQSPSSLSASLGDTITITCHASQNINVWLSWYQQKPGNIPKLLIYKASNLHTGVPSRFSGSGSGTGFTLTISSLQPEDIATYYCQQGQSYPYTFGGGTKLEIKRTVAAPSVFIFPPSDEQLKSGTASVVCLLNNFYPREAKVQWKVDNALQSGNSQESVTEQDSKDSTYSLSSTLTLSKADYEKHKVYACEVTHQGLSSPVTKSFNRGEC
For the molecule B6, the “IC50 (M), CSF1-dependent AML5 cell proliferation” value in [1] was determined as 4.62e-10 M. In addition, in assay [11], the “IC50 (M), CSF1-dependent survival of CD14+ monocytes” value stood at 5.58e-10 M and the “IC50 (M), CSF1-dependent survival of macrophages” value came to 1.38e-10 M. In addition, in [12], the Kd (as a rule, a measure of binding affinity in units of concentration) came out at 3.42 nM; the koff (in general, the first-order rate constant of dissociation) is 0.000946 s⁻¹; the kon (as a rule, the second-order rate constant of association) is 277000 M⁻¹ s⁻¹. Further, the EC50 in [2] turned out to be 0.531 nM. In addition, the EC50 in assay [3] came to 0.381 nM. In [13], the “IC50 (M), CSF1-dependent AML5 cell proliferation” value was found to be 4.62e-10 M and the “IC50 (M), IL-34-dependent AML5 cell proliferation” value turned out to be 3.49e-10 M.

B7: hy6M6 (antibody, V domains shown)
VH: DVQLQQSGTVLARPGASVKMSCKASGYTFTSYWIHWVKQRPGQGLEWIGAIYPGNRDTNYNQKFKGKAKLTTVTSASTAYMELSSLTNEDSAVYYCTGAFAGYYDWYFDVWGAGTTVTVSS
VL: DIVLTQSPASLAVSLGQRATISCKASQGVDYAGDSYMNWYQQKPGQPPKLLIYVASDLDSGIPARFSGSGSGTNFTLNIHPVEEEDAATYYCQQSYEDPRTFGGGTTLEIQ
notes: Mouse hybridoma antibody; also called anti-CSF1R antibody purified from hybridoma supernatant hy6M6
Take B7: the values for the 50% effective concentration (EC50) in [8] and in assay [10] were 0.0653 nM and 0.112 nM, respectively. Moreover, the half-maximal inhibitory concentration (IC50) in assay [9] is 1.04 nM.

Source of the values: US20210403583A1 (ELIXIRON IMMUNOTHERAPEUTICS HONG KONG, published 2021).
